Measurements taken from FireProtDB (doi:10.1074/jbc.273.32.19982).

B1: DNA-binding protein HU 1, P08821 (parent)
chain: MNKTELINAVAEASELSKKDATKAVDSVFDTILDALKNGDKIQLIGFGNFEVRERSARKGRNPQTGEEIEIPASKVPAFKPGKALKDAVAGK
B2: DNA-binding protein HU, P0A3H0 (parent)
chain: MNKTELINAVAETSGLSKKDATKAVDAVFDSITEALRKGDKVQLIGFGNFEVRERAARKGRNPQTGEEMEIPASKVPAFKPGKALKDAVK

Assays:
[1] = variants of: B1; details: Bacillus subtilis (strain 168), pH 7, Thermal, CD, Sodium phosphate 5 mM, NaCl 0.2 M, reversible: yes, whole UniProt chain shown; for ddG of mutation (higher = less stable): 48.6 °C
[2] = variants of: B2; details: Geobacillus stearothermophilus, pH 7, Thermal, structure 1HUE, whole UniProt chain shown; for ddG of mutation (higher = less stable): 63.9 °C
[3] = CD, Sodium phosphate 5 mM, NaCl 0.2 M, reversible: yes

In the case of MNKTELINAVAEASGLSKKDATKAVDSVFDTILDALKNGDKIQLIGFGNFEVRERSARKGRNPQTGEEIEIPASKVPAFKPGKALKDAVAGK [E15G], the “ddG of mutation (higher = less stable)” value [1] is reported as -6.49 kJ/mol, the Tm [1] is reported as 60.4 °C and the “change of melting temperature, mutant - wild type (higher = more stable)” value (from here on “change of melting temperature, mutant”) [1] is reported as 11.8 °C.

In the case of MNKTELINAVAEASELSKKDATKAVDSVFDTILDALKNGDKVQLIGFGNFEVRERSARKGRNPQTGEEIEIPASKVPAFKPGKALKDAVAGK [I42V], the Tm [1] is reported as 52.6 °C and the “change of melting temperature, mutant” value [1] is reported as 4 °C.

In the case of MNKTELINAVAEASELSKKDATKAVDAVFDTILDALKNGDKIQLIGFGNFEVRERSARKGRNPQTGEEIEIPASKVPAFKPGKALKDAVAGK [S27A], the “ddG of mutation (higher = less stable)” value [1] is reported as -3.05 kJ/mol, the Tm [1] is reported as 54.2 °C and the “change of melting temperature, mutant” value [1] is reported as 5.6 °C.

For MNKTELINAVAEASELSKKDATKAVDSVFDTILEALKKGDKIQLIGFGNFEVRERSARKGRNPQTGEEIEIPASKVPAFKPGKALKDAVAGK [D34E N38K], the “ddG of mutation (higher = less stable)” value [1] was -1.88 kJ/mol, the Tm [1] was 52.1 °C and the “change of melting temperature, mutant” value [1] was 3.5 °C.

In the case of MNKTELINAVAEASGLSKKDATKAVDAVFDTILEALKKGDKVQLIGFGNFEVRERSARKGRNPQTGEEIEIPASKVPAFKPGKALKDAVAGK [E15G S27A D34E N38K I42V], the “ddG of mutation (higher = less stable)” value [1] is reported as -12.5 kJ/mol, the Tm [1] is reported as 71.3 °C and the “change of melting temperature, mutant” value [1] is reported as 22.7 °C.

With MNKTELINAVAETSGLSKKDATKAVDAVFDSITEALRKGDKIQLIGFGNFEVRERAARKGRNPQTGEEMEIPASKVPAFKPGKALKDAVK [V42I] the “ddG of mutation (higher = less stable)” value [2, 3] was 3.43 kJ/mol, the Tm [2, 3] was 60.1 °C and the “change of melting temperature, mutant” value [2, 3] was -3.8 °C. For the same variant, the “unfolding enthalpy (van 't Hoff)” value [2, 3] was 229 kJ/mol, the Tm ([2]; DSC, phosphate 0.05 M) was 59.6 °C and the “change of melting temperature, mutant” value ([2]; DSC, phosphate 0.05 M) was -6.2 °C.

For MNKTELINAVAETSGLSKKDATKAVDAVFDSITEALRNGDKVQLIGFGNFEVRERAARKGRNPQTGEEMEIPASKVPAFKPGKALKDAVK [K38N], the Tm [2, 3] was 61.5 °C, the “change of melting temperature, mutant” value [2, 3] was -2.4 °C and the Tm ([2]; DSC, phosphate 0.05 M) was 61.7 °C. For the same variant, the “change of melting temperature, mutant” value ([2]; DSC, phosphate 0.05 M) was -4.1 °C.

With MNKTELINAVAETSGLSKKDATKAVDAVFDSITDALRKGDKVQLIGFGNFEVRERAARKGRNPQTGEEMEIPASKVPAFKPGKALKDAVK [E34D] the Tm [2, 3] was 61.6 °C, the “change of melting temperature, mutant” value [2, 3] was -2.3 °C and the Tm ([2]; DSC, phosphate 0.05 M) was 63.5 °C. For the same variant, the “change of melting temperature, mutant” value ([2]; DSC, phosphate 0.05 M) was -2.3 °C.

For MNKTELINAVAETSELSKKDATKAVDAVFDSITEALRKGDKVQLIGFGNFEVRERAARKGRNPQTGEEMEIPASKVPAFKPGKALKDAVK [G15E], the Tm [2, 3] was 54 °C, the “change of melting temperature, mutant” value [2, 3] was -9.9 °C and the Tm ([2]; DSC, phosphate 0.05 M) was 55.7 °C. The “change of melting temperature, mutant” value ([2]; DSC, phosphate 0.05 M) was -10.1 °C.

With MNKTELINAVAETSGLSKKDATKAVDAVFDSITEALRKGDKVQLIGFGNFEVRERSARKGRNPQTGEEMEIPASKVPAFKPGKALKDAVK [A56S] the “ddG of mutation (higher = less stable)” value [2, 3] was 0.544 kJ/mol, the Tm [2, 3] was 63.3 °C and the “change of melting temperature, mutant” value [2, 3] was -0.6 °C. For the same variant, the “unfolding enthalpy (van 't Hoff)” value [2, 3] was 347 kJ/mol.

With MNKTELINAVAETSGLSKKDATKAVDAVFDSITEALRKGDKVQLIGFGNFEVRERAARKGRNPQTGEEIEIPASKVPAFKPGKALKDAVK [M69I] the “ddG of mutation (higher = less stable)” value [2, 3] was 0 kJ/mol, the Tm [2, 3] was 63.9 °C and the “change of melting temperature, mutant” value [2, 3] was 0 °C. The “unfolding enthalpy (van 't Hoff)” value [2, 3] was 331 kJ/mol.

In the case of MNKTELINAVAETSGLSKKDATKAVDAVFDTITEALRKGDKVQLIGFGNFEVRERAARKGRNPQTGEEMEIPASKVPAFKPGKALKDAVK [S31T], the “ddG of mutation (higher = less stable)” value [2, 3] is reported as -1.72 kJ/mol, the Tm [2, 3] is reported as 65.8 °C and the “change of melting temperature, mutant” value [2, 3] is reported as 1.9 °C. The “unfolding enthalpy (van 't Hoff)” value [2, 3] was 339 kJ/mol.

For MNKTELINAVAETSGLSKKDATKAVDSVFDSITEALRKGDKVQLIGFGNFEVRERAARKGRNPQTGEEMEIPASKVPAFKPGKALKDAVK [A27S], the Tm [2, 3] was 58.4 °C, the “change of melting temperature, mutant” value [2, 3] was -5.5 °C and the “unfolding enthalpy (van 't Hoff)” value [2, 3] was 320 kJ/mol.
